Assay results taken from patent publication US20030198640A1 (Human Genome Sciences, published 2003).

How the values were obtained:
Assay in all cases: flow cytometry on transiently transfected cells
[1] = target: T1, DR4 on transiently transfected cells (UniProt O00220 24-468, limits assumed)
T1 construct: whole, on cells
T1 sequence (looked up): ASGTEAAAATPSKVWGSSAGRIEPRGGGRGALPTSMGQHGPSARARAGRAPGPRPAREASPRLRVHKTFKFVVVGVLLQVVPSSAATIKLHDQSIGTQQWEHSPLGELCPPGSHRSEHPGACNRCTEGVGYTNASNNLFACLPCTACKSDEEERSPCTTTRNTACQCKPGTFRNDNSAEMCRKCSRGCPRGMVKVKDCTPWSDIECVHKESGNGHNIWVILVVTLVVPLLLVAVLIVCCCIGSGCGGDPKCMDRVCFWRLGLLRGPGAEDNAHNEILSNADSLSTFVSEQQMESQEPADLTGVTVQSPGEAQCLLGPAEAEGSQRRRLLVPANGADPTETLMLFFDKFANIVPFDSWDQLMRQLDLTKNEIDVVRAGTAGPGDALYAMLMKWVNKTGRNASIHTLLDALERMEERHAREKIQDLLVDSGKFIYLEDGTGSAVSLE
Description: (§1) One million cells, in 0.1 ml of FACS buffer (PBS, 0.1% BSA, 0.1% NaN₃), were incubated with 0.1-1 microgram of protein or antibody at RT for 15 min. The cells were washed with 3 ml of FACS buffer, reacted with biotinylated primary antibody, and stained with PE-conjugated secondary antibody at RT for 15 min. Cells were then washed again, resuspended in 0.5 microgram/ml of propidium iodide, and live cells were gated and analyzed on a FACScan using the CellQuest software (BD Biosciences).

[2] = target: T2, TNFR2 on transiently transfected cells (UniProt P20333 23-461, limits assumed)
T2 construct: whole, on cells
T2 sequence (looked up): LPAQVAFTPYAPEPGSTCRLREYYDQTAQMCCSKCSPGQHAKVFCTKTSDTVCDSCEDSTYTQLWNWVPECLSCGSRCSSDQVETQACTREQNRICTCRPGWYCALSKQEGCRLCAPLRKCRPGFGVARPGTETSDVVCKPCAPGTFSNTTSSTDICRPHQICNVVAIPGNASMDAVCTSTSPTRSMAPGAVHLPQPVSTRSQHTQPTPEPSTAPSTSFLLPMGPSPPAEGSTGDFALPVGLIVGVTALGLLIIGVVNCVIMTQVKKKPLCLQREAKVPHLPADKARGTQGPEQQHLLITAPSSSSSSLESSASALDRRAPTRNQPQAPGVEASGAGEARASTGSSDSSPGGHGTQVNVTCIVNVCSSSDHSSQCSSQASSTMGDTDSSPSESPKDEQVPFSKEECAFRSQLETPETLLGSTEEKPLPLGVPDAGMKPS
Description: as §1

[3] = target: T3, LT R (LTβR) on transiently transfected cells (UniProt P36941 31-435, limits assumed)
T3 construct: whole, on cells
T3 sequence (P36941 31-435 limits assumed): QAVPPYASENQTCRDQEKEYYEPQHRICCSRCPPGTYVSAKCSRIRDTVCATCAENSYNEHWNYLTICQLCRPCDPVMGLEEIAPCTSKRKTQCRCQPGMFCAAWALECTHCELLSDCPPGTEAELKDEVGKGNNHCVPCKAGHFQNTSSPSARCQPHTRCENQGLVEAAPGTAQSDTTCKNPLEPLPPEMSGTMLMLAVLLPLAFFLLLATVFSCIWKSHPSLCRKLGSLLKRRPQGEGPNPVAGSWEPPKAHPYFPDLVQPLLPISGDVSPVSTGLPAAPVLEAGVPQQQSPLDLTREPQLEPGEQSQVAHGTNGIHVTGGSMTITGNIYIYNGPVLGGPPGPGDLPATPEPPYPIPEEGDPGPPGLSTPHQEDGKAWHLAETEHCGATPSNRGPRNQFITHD
Description: as §1

[4] = target: T4, AITR on transiently transfected cells (UniProt Q9Y5U5 26-241, limits assumed)
T4 construct: whole, on cells
T4 sequence (looked up): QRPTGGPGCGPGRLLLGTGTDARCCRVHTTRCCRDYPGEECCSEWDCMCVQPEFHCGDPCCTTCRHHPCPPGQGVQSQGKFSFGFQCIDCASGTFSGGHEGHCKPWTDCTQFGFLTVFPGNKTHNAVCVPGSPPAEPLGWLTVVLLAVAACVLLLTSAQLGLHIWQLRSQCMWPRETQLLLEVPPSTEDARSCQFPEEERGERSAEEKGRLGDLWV
Description: as §1

[5] = target: T5, 4-1BB on transiently transfected cells (UniProt Q07011 24-255)
T5 construct: whole, on cells
T5 sequence (Q07011 24-255): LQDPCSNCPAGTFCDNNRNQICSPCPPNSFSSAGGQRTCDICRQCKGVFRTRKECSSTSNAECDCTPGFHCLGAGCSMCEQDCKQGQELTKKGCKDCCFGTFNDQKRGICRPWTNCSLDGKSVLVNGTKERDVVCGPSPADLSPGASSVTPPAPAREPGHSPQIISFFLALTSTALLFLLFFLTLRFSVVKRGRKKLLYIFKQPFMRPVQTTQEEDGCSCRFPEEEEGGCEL
Description: as §1

[6] = target: T6, DR6 on transiently transfected cells (UniProt O75509 42-655, limits assumed)
T6 construct: whole, on cells
T6 sequence (looked up): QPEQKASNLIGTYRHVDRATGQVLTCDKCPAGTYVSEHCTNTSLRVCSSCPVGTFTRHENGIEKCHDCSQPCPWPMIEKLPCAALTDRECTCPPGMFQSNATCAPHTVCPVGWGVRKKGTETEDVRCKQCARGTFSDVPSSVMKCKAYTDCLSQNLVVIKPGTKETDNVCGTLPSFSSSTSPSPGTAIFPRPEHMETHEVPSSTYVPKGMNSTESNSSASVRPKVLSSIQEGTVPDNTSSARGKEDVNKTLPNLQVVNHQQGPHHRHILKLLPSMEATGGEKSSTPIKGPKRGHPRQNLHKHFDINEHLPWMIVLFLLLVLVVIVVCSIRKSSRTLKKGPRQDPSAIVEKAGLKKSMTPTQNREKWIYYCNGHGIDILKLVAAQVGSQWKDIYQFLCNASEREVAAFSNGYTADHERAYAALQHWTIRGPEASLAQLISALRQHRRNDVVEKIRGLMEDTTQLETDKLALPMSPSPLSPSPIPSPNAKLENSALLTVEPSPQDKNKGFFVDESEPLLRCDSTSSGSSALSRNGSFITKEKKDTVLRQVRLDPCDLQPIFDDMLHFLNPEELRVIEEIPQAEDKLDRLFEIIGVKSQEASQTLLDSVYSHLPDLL
Description: as §1

[7] = target: T7, DcR2 on transiently transfected cells (UniProt Q9UBN6 56-386, limits assumed)
T7 construct: whole, on cells
T7 sequence (looked up): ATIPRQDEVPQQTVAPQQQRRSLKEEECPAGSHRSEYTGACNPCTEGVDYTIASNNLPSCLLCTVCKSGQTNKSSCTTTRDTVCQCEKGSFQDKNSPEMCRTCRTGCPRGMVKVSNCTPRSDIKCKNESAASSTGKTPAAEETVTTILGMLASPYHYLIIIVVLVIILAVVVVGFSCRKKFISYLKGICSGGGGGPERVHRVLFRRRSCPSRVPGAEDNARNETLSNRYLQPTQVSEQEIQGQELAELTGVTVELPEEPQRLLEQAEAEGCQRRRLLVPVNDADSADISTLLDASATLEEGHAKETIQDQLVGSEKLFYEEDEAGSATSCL
Description: as §1

Measured: binding result

B1: FLAG-tagged soluble form of TNF-gamma-beta (aa 72-251) (ligand)
chain: LKGQEFAPSHQQVYAPLRADGDKPRAHLTVVRQTPTQHFKNQFPALHWEHELGLAFTKNRMNYTNKFLLIPESGDYFIYSQVTFRGMTSECSEIRQAGRPNKPDSITVVITKVTDSYPEPTQLLMGTKSVCEVGSNWFQPIYLGAMFSLQEGDKLMVNVSDISLVDYTKEDKTFFGAFLL
notes: also called FLAG-TL1β; FLAG-TNF-gamma-beta; not shown: FLAG tag of the pFLAG-CMV-1 vector at the amino terminus
no binding: [1] | [2] | [3] | [4] | [5] | [6] | [7]
